Results taken from patent US20240327530A1 (ICHNOS SCIENCES, published 2024).

T1: Recombinant human IL-1RAP Fc fusion protein (Acrobiosystems, catalog no. ILP-H5256) (human, UniProt Q9NPH3 21-359, limits assumed)
T1 construct: Bought; not shown: Fc part of the bought fusion protein
T1 sequence: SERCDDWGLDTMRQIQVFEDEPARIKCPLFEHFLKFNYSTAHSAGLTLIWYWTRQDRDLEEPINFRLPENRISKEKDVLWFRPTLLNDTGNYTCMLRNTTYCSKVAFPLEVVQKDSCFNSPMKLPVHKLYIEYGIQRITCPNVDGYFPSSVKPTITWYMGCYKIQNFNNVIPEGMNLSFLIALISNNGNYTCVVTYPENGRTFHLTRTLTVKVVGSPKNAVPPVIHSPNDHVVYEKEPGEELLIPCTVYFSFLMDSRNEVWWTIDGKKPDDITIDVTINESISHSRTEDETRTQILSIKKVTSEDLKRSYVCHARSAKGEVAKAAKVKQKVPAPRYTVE

T2: Recombinant mouse IL-1RAP Fc fusion protein (Sino Biologicals, catalog no. 52657-M02H) (mouse, UniProt Q61730 21-350)
T2 construct: Bought; not shown: Fc part of the bought fusion protein
T2 sequence: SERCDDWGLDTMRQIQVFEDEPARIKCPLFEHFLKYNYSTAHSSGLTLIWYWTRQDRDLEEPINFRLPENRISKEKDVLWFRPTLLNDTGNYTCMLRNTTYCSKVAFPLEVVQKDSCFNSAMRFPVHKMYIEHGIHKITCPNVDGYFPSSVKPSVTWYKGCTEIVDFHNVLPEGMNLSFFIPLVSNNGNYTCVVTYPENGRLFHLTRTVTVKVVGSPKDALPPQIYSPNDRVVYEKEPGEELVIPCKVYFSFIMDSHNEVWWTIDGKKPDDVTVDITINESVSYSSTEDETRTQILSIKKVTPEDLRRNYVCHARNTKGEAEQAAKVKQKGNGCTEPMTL

T3: Recombinant cynomolgus monkey IL-1RAP-ECD(S21-E359)-avi-his protein (cynomolgus monkey, UniProt P59822 21-359 (rhesus entry))
T3 construct: also called cyno IL-1RAP-ECD-Avi-His; recombinant cynomolgus monkey IL-1RAP-avi-his protein
T3 sequence: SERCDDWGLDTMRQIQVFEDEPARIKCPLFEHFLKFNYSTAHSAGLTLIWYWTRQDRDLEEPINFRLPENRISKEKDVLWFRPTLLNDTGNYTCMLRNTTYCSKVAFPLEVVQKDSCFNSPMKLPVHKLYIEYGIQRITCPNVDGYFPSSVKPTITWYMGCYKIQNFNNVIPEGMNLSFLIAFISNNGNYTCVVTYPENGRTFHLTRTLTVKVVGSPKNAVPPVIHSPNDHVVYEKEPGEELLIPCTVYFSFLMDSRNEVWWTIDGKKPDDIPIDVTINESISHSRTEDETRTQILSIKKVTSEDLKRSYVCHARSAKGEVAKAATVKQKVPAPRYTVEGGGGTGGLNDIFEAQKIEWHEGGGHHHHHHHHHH


Experiments:
[1] = molecular target: T1, Recombinant human IL-1RAP Fc fusion …; assay: SPR, human IL-1RAP-Fc captured, Fab as analyte, 1:1 fit
Description: (§1) Surface plasmon resonance (SPR) was used to measure the binding affinities of the Fab fragments for human, cynomolgus monkey and/or mouse IL-1RAP. Affinities were measured on a BIACORE™ T200 instrument (BIACORE™, GE […]®) at 25° C. and analyzed with the BIACORE™ T200 Evaluation Software (v3.1). Measurements were performed on Series S CM5 sensor chips (BIACORE™ T200, BIACORE™, GE […]®, catalog no. BR100530) coupled with anti-human IgG Fc (BIACORE™, GE […]®, catalog no. BR100839) using a commercial amine coupling kit (BIACORE™, GE […]®, catalog no. BR100050) or on Series S BiotinCAPture chips (BIACORE™, GE […]®, catalog no. 28920234). SPR measurements were performed with commercially available recombinant human IL-1RAP Fc fusion protein (Acrobiosystems, catalog no. ILP-H5256) and recombinant mouse IL-1RAP Fc fusion protein (Sino Biologicals, catalog no. 52657-M02H) or with biotinylated recombinant cynomolgus monkey IL-1RAP-avi-his protein produced in-house (SEQ ID NO. 2).
(§2) The affinities to human, cynomolgus monkey and mouse IL-1RAP were assessed by immobilizing IL-1RAP and using Fab fragments as analyte. Around 100 RU of human or mouse IL-1RAP Fc fusion protein were captured on fc2 of a Series S CM5 sensor chip coupled with anti-human IgG Fc and around 150 RU of biotinylated cynomolgus monkey IL-1RAP protein were captured on fc2 of a Series S BiotinCAPture chip. Fab fragments were injected in single cycle kinetic at different concentrations ranging from 7.8 to 500 nM, in HBS-EP+ buffer (BIACORE™, GE […]®, catalog no. BR100669) at a flow rate of 30 μl/min for 3 min on fc1 and fc2 (fc1 being used as reference). Dissociation was monitored for 5 min. After each cycle, the surface was regenerated with 60 μl of regeneration solution provided with anti-human IgG Fc capture kit (BIACORE™, GE […]®, catalog no. BR100839) or BiotinCAPture kit (BIACORE™, GE […]®, catalog no. 28920234) respectively. Experimental data were processed using the 1:1 Langmuir kinetic fitting model. Measurements included zero-concentration samples for referencing. Chi², U- and residual values were used to evaluate the quality of a fit between the experimental data and individual binding models.

[2] = molecular target: T2, Recombinant mouse IL-1RAP Fc fusion …; assay: SPR, mouse IL-1RAP-Fc captured, Fab as analyte
Description: as §1, §2

[3] = molecular target: T3, Recombinant cynomolgus monkey …; assay: SPR, biotinylated cyno IL-1RAP-avi-his captured, Fab as analyte, 1:1 fit
Description: as §1, §2

Kd [1]	binding result [2]	Kd [3]	Binder
907 nM	no binding (tested: 7.8 to 500 nM Fab)	682 nM	Anti-IL-1RAP-UCP02-H9-Fab (Fab, V domains shown) VH: QVQLVQSGAEVKKPGSSVKVSCKASGGPFSSYALSWVRQAPGQGLEWMGGIIPHHGATYYAQKFQGRVTITADESTSTAYMELSSLRSEDTAVYYCARHPDVYTPWFDVWGQGTLVTVSS VL: not shown
573 nM	no binding (tested: 7.8 to 500 nM Fab)	761 nM	Anti-IL-1RAP-UCP03-C1-Fab (Fab, V domains shown) VH: QVQLVQSGAEVKKPGSSVKVSCKASGGRFSSNAISWVRQAPGQGLEWMGGIIPHFGAVYYAQKFQGRVTITADESTSTAYMELSSLRSEDTAVYYCARGSVYTGWFDNWGQGTLVTVSS VL: not shown
582 nM	no binding (tested: 7.8 to 500 nM Fab)	589 nM	Anti-IL-1RAP-UCP03-A2-Fab (Fab, V domains shown) VH: QVQLVQSGAEVKKPGSSVKVSCKASGGKFNFDVIHWVRQAPGQGLEWMGGIIPDFASTHYAQKFQGRVTITADESTSTAYMELSSLRSEDTAVYYCARVPDYYTGWMAYWGQGTLVTVSS VL: not shown
888 nM	no binding (tested: 7.8 to 500 nM Fab)		Anti-IL-1RAP-UCP03-F4-Fab (Fab, V domains shown) VH: QVQLVQSGAEVKKPGSSVKVSCKASGGGFSEYAIHWVRQAPGQGLEWMGAILPEQGAAYYAQKFQGRVTITADESTSTAYMELSSLRSEDTAVYYCARVGLYVPYMDIWGQGTLVTVSS VL: not shown
260 nM	no binding (tested: 7.8 to 500 nM Fab)	345 nM	Anti-IL-1RAP-UCP02-G11-Fab (Fab, V domains shown) VH: QVQLVQSGAEVKKPGSSVKVSCKASGGQFNDYAIHWVRQAPGQGLEWMGYIIPAYGQAEYAQKFQGRVTITADESTSTAYMELSSLRSEDTAVYYCARVPYSTAYFDYWGQGTLVTVSS VL: not shown
73.5 nM	no binding (tested: 7.8 to 500 nM Fab)	116 nM	Anti-IL-1RAP-UCP02-G8-Fab (Fab, V domains shown) VH: QVQLVQSGAEVKKPGSSVKVSCKASGGFFSIYAISWVRQAPGQGLEWMGGIAPAAGIAEYAQKFQGRVTITADESTSTAYMELSSLRSEDTAVYYCARGQSPGRVREEYWYDYWGQGTLVTVSS VL: not shown
545 nM	no binding (tested: 7.8 to 500 nM Fab)	756 nM	Anti-IL-1RAP-UCP03-B6-Fab (Fab, V domains shown) VH: QVQLVQSGAEVKKPGSSVKVSCKASGDPFSVYIIHWVRQAPGQGLEWMGYIIAQQGSASYAQKFQGRVTITADESTSTAYMELSSLRSEDTAVYYCARVPDPYSGHFDYWGQGTLVTVSS VL: not shown
221 nM	no binding (tested: 7.8 to 500 nM Fab)	220 nM	Anti-IL-1RAP-UCP03-B4-Fab (Fab, V domains shown) VH: QVQLVQSGAEVKKPGSSVKVSCKASGGPFSQHAISWVRQAPGQGLEWMGGIIPFEGVAFYAQKFQGRVTITADESTSTAYMELSSLRSEDTAVYYCARSSSYYSWLDYWGQGTLVTVSS VL: not shown

Continued, binder first:

Binder	Kd [1]	binding result [2]	Kd [3]
Anti-IL-1RAP-UCP02-A6-Fab (Fab, V domains shown) VH: QVQLVQSGAEVKKPGSSVKVSCKASGGAFRIYAIHWVRQAPGQGLEWMGGILASGGGAVYAQKFQGRVTITADESTSTAYMELSSLRSEDTAVYYCARAKDIYGYGYGDIWGQGTLVTVSS VL: not shown	223 nM	no binding (tested: 7.8 to 500 nM Fab)	197 nM
Anti-IL-1RAP-UCP02-D2-Fab (Fab, V domains shown) VH: QVQLVQSGAEVKKPGSSVKVSCKASGGRFSDSAIHWVRQAPGQGLEWMGYILPQFGAPLYAQKFQGRVTITADESTSTAYMELSSLRSEDTAVYYCARGSYYGVVGYVPDDYWGQGTLVTVSS VL: not shown	49 nM	no binding (tested: 7.8 to 500 nM Fab)	50.9 nM
Anti-IL-1RAP-UCP02-H8-Fab (Fab, V domains shown) VH: QVQLVQSGAEVKKPGSSVKVSCKASGGVFSGYAISWVRQAPGQGLEWMGGIIPEFGATNYAQKFQGRVTITADESTSTAYMELSSLRSEDTAVYYCARHSSAYSPWFDYWGQGTLVTVSS VL: not shown	328 nM	no binding (tested: 7.8 to 500 nM Fab)	297 nM
Anti-IL-1RAP-UCP02-C9-Fab (Fab, V domains shown) VH: QVQLVQSGAEVKKPGSSVKVSCKASGGVFSYYAFHWVRQAPGQGLEWMGGIIPGYGATFYAQKFQGRVTITADESTSTAYMELSSLRSEDTAVYYCARPVSYSSGWYDYWGQGTLVTVSS VL: not shown	35.6 nM	no binding (tested: 7.8 to 500 nM Fab)	27.8 nM
Anti-IL-1RAP-UCP03-A3-Fab (Fab, V domains shown) VH: QVQLVQSGAEVKKPGSSVKVSCKASGGLFNENAIHWVRQAPGQGLEWMGGIIPDVGAAFYAQKFQGRVTITADESTSTAYMELSSLRSEDTAVYYCARGSIYTAWFAVWGQGTLVTVSS VL: not shown	137 nM	no binding (tested: 7.8 to 500 nM Fab)	177 nM
Anti-IL-1RAP-UCP02-A4-Fab (Fab, V domains shown) VH: QVQLVQSGAEVKKPGSSVKVSCKASGGVFSYYAISWVRQAPGQGLEWMGAIIPDFGHTIYAQKFQGRVTITADESTSTAYMELSSLRSEDTAVYYCARASPYKGWWDYWGQGTLVTVSS VL: not shown	84.3 nM	no binding (tested: 7.8 to 500 nM Fab)	103 nM
Anti-IL-1RAP-UCP02-C8-Fab (Fab, V domains shown, also called anti-IL-1RAP-C8; anti-IL-1RAP-C8 Fab) VH: QVQLVQSGAEVKKPGSSVKVSCKASGGQFSEYAIQWVRQAPGQGLEWMGYIIPLHGQVDYAQKFQGRVTITADESTSTAYMELSSLRSEDTAVYYCARGQTLYDSGRQFDIWGQGTLVTVSS VL: not shown	2.2 nM	no binding (tested: 7.8 to 500 nM Fab)	2.2 nM
Anti-IL-1RAP-UCP02-C5-Fab (Fab, V domains shown) VH: QVQLVQSGAEVKKPGSSVKVSCKASGGHFNIYAISWVRQAPGQGLEWMGYIIPSLGAVDYAQKFQGRVTITADESTSTAYMELSSLRSEDTAVYYCARASIYHGWMAYWGQGTLVTVSS VL: not shown	368 nM	no binding (tested: 7.8 to 500 nM Fab)	334 nM
Anti-IL-1RAP-UCP02-G3-Fab (Fab, V domains shown) VH: QVQLVQSGAEVKKPGSSVKVSCKASGGYLNEYAIHWVRQAPGQGLEWMGAVIPRYGQTYYAQKFQGRVTITADESTSTAYMELSSLRSEDTAVYYCARPLGYSYGWFDYWGQGTLVTVSS VL: not shown	230 nM	no binding (tested: 7.8 to 500 nM Fab)	296 nM
